Test results reported in patent CN117396514A (ELEKTA S R L, dated 2024).

T1: 人MerTK, M2c分化的人巨噬细胞上 (human, UniProt Q12866 21-999)
T1 construct: also called M2c differentiated human macrophages; endogenous human MerTK
T1 sequence: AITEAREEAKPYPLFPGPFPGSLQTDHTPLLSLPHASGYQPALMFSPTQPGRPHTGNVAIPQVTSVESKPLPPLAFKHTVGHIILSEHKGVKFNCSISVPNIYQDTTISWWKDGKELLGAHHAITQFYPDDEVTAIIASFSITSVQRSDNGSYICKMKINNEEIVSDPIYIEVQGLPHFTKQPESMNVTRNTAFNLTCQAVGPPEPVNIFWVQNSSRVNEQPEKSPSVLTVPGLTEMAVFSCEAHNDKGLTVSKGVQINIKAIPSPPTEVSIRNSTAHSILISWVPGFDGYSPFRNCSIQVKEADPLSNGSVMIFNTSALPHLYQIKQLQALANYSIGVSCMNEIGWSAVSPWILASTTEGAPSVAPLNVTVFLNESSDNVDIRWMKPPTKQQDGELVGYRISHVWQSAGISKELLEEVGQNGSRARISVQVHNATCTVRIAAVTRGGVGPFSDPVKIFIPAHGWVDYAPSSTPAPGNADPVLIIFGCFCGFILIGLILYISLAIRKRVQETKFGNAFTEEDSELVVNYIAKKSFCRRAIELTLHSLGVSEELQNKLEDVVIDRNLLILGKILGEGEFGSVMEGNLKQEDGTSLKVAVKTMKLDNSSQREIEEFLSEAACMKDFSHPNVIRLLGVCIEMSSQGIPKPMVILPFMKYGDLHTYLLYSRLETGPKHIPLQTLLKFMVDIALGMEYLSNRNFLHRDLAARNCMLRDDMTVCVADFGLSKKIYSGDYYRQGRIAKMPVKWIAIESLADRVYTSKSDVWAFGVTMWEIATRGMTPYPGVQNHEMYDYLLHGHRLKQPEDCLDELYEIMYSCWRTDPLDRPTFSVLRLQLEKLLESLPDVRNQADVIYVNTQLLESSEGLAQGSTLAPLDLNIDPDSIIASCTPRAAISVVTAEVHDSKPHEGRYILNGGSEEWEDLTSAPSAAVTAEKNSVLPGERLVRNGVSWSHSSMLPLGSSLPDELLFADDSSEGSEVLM

B1: 单价(单臂)抗MerTK抗体MTK-16.2 (Fc LALAPS) (antibody, V domains shown)
VH: QVQLVQSGSELKKPGASVKVSCKASGYTFTNHGMNWVRQAPGQGLEWMGWINTYTGEPTYADDFKGRFVFSLDTSVSTAYLQISSLKAEDTAVYYCARKGVTAARYFDYWGQGTLVTVSS
VL: DIQMTQSPSSLSASVGDRVTITCRASQNVRTAVAWYQQKPGKAPKRLIYLASNRHTGVPSRFSGSGSGTEFTLTISNLQPEDFATYYCLQHWNYPLTFGGGTKLEIK
modifications: Dylight650 conjugate in the FACS binding assay (site not stated)
B2: 二价(全IgG)抗MerTK抗体MTK-16.2 (Fc LALAPS) (antibody, V domains shown)
VH: QVQLVQSGSELKKPGASVKVSCKASGYTFTNHGMNWVRQAPGQGLEWMGWINTYTGEPTYADDFKGRFVFSLDTSVSTAYLQISSLKAEDTAVYYCARKGVTAARYFDYWGQGTLVTVSS
VL: DIQMTQSPSSLSASVGDRVTITCRASQNVRTAVAWYQQKPGKAPKRLIYLASNRHTGVPSRFSGSGSGTEFTLTISNLQPEDFATYYCLQHWNYPLTFGGGTKLEIKR
modifications: Dylight650 conjugate in the FACS binding assay (site not stated)
B3: 单价(单臂)抗MerTK抗体MTK-33.11 (Fc LALAPS) (antibody, V domains shown)
VH: QVQLVQSGAEVKKPGASVKVSCKASGYTFTSYWMHWVRQAPGQGLEWIGVIDPSDNYINYNQKFQGRVTMTRDTSTSTVYMELSSLRSEDTAVYYCAREAWTRGYFDYWGQGTLVTVSS
VL: DIQMTQSPSSLSASVGDRVTITCQASRSVRNTVAWYQQKPGKAPKLLIYYASNRYTGVPSRFSGSGSGTDFTFTISSLQPEDIATYYCQQDYRSPFTFGQGTKLEIK
modifications: Dylight650 conjugate in the FACS binding assay (site not stated)

Legend:
人MerTK, M2c分化的人巨噬细胞上 [1] = molecular target: T1, 人MerTK, M2c分化的人巨噬细胞上; assay: FACS, Dylight650-conjugated antibody titrated on M2c differentiated human macrophages; Kd from MFI by Prism (EC50-like)
人MerTK, M2c分化的人巨噬细胞上 [2] = molecular target: T1, 人MerTK, M2c分化的人巨噬细胞上; assay: cell-based or functional assay

Binder | Kd (人MerTK, M2c分化的人巨噬细胞上 [1]) | 胞葬作用 IC50 (efferocytosis of pHrodo-labelled apoptotic Jurkat cells by M2c human macrophages) (人MerTK, M2c分化的人巨噬细胞上 [2])
B1 | ~78 nM | 37.9 nM
B2 | ~52 nM | 0.436 nM
B3 | – | ~4.4 nM
